Data reported in patent US20010025379A1.

What was measured:
Test in all cases: yeast two-hybrid, liquid β-galactosidase quantification
[1] = target: cycD1;1 in the GAL4 DNA-binding domain vector (yeast two-hybrid fusion) (Arabidopsis thaliana)
[2] = target: cycD2;1 in the GAL4 DNA-binding domain vector (yeast two-hybrid fusion) (Arabidopsis thaliana)
[3] = target: cycA2;2 in the GAL4 DNA-binding domain vector (yeast two-hybrid fusion) (Arabidopsis thaliana)
[4] = target: PCNAAt in the GAL4 DNA-binding domain vector (yeast two-hybrid fusion) (Arabidopsis thaliana)
[5] = target: cycD3;1 in the GAL4 DNA-binding domain vector (yeast two-hybrid fusion / bait) (Arabidopsis thaliana)
[6] = target: Cdc2b in the GAL4 DNA-binding domain vector (yeast two-hybrid fusion) (Arabidopsis thaliana)
[7] = target: cycB2;2 in the GAL4 DNA-binding domain vector (yeast two-hybrid fusion) (Arabidopsis thaliana)
[8] = target: ATMAP2 in the GAL4 DNA-binding domain vector (yeast two-hybrid fusion) (Arabidopsis thaliana)
[9] = target: DB-vector alone (GAL4 DNA-binding domain without insert), control (UniProt P04386)
[10] = target: cycB1;1 in the GAL4 DNA-binding domain vector (yeast two-hybrid fusion) (Arabidopsis thaliana)
[11] = target: Cdc2a in the GAL4 DNA-binding domain vector (yeast two-hybrid fusion) (Arabidopsis thaliana)

ICK1 in a GAL4-activation domain vector (yeast two-hybrid fusion) (from UniProt P04386 768-881)
Quantification [1]: 3.13
Quantification [2]: 14.8
Quantification [3]: 0.03
Quantification [4]: 0
Quantification [5]: 22.7
Quantification [6]: 0
Quantification [7]: 0.05
Quantification [8]: 0
Quantification [9]: 0
Quantification [10]: 0.06
Quantification [11]: 2.65
